Consider 27 molecules from PMC10786891, “Massively parallel profiling of RNA-targeting CRISPR-Cas13d”.

The labels stand for the following.
B1: target 1 insA 3' of 11,insG 3' of 4 (mixed)
RNA 1: CACCCGUGCAAAAAUGCAGGGGUCUAAAACUGAGCGGAUAACCUCUCUAUGG
RNA 2: GGGAAUGGAUCCACAUCUACGAAUUCGUACCAUAGAGAGGUAUAUCCGCGUCACCGAGAUCGGAAGAGCACACGU
B2: target 1 insA 3' of 6,insG 3' of 2 (mixed)
RNA 1: B1 RNA 1
RNA 2: B1 RNA 2 with A42U, U43A, A44U, U45C, C47A, G50U, U51C, C52G
B3: target 1 insG 3' of 14,insG 3' of 2 (mixed)
RNA 1: B1 RNA 1
RNA 2: B1 RNA 2 with U41G, A42U, G50U, U51C, C52G
B4: target 1 insU 3' of 22,insA 3' of 21 (mixed)
RNA 1: B1 RNA 1
RNA 2: GGGAAUGGAUCCACAUCUACGAAUUCGUACUCAAUAGAGAGGUUAUCCGCUCACCGAGAUCGGAAGAGCACACGU
B5: target 1 insU 3' of 17,insG 3' of 6 (mixed)
RNA 1: B1 RNA 1
RNA 2: B1 RNA 2 with A36U, G37A, A38G, G39A, U41G, A42U, C49G, G50C
B6: target 1 complement block 2-5 (mixed)
RNA 1: B1 RNA 1
RNA 2: GGGAAUGGAUCCACAUCUACGAAUUCGUACCAUAGAGAGGUUAUCCCGAGACCGAGAUCGGAAGAGCACACGU
B7: target 1 C2A,U3C (mixed)
RNA 1: B1 RNA 1
RNA 2: B6 RNA 2 with C47G, G48C, A49C, G50A
B8: target 1 G5A,U11A (mixed)
RNA 1: B1 RNA 1
RNA 2: B6 RNA 2 with U41A, C47A, G48C, A49U, G50C
B9: target 1 insG 3' of 21,insU 3' of 21 (mixed)
RNA 1: B1 RNA 1
RNA 2: B4 RNA 2 with U31C, C32G, A33U
B10: target 1 insC 3' of 9 (mixed)
RNA 1: B1 RNA 1
RNA 2: GGGAAUGGAUCCACAUCUACGAAUUCGUACCAUAGAGAGGUUACUCCGCUCACCGAGAUCGGAAGAGCACACGU
B11: target 1 A1C,U11G (mixed)
RNA 1: B1 RNA 1
RNA 2: B6 RNA 2 with U41G, C47G, G48C, A49U, G50C, A51C
B12: target 1 insC 3' of 20,insG 3' of 10 (mixed)
RNA 1: B1 RNA 1
RNA 2: GGGAAUGGAUCCACAUCUACGAAUUCGUACCACUAGAGAGGUUGAUCCGCUCACCGAGAUCGGAAGAGCACACGU
B13: target 1 insC 3' of 3 (mixed)
RNA 1: B1 RNA 1
RNA 2: B10 RNA 2 with C44U, U45C, C47G, G48C, C49U, U50C
B14: target 1 insC 3' of 14,insU 3' of 2 (mixed)
RNA 1: B1 RNA 1
RNA 2: B1 RNA 2 with G39C, U41G, A42U, G50U, U51C, C52U
B15: target 1 insA 3' of 17,insU 3' of 17 (mixed)
RNA 1: B1 RNA 1
RNA 2: B4 RNA 2 with U31C, C32A, A33U, U35G, G37U
B16: target 1 A20C,C22G (mixed)
RNA 1: B1 RNA 1
RNA 2: B6 RNA 2 with C30G, A32C, C47G, G48C, A49U, G50C
B17: target 1 insU 3' of 14,insC 3' of 8 (mixed)
RNA 1: B1 RNA 1
RNA 2: B1 RNA 2 with G39U, U41G, A42U, G48C, C49G, G50C
B18: target 1 insG 3' of 4,insC 3' of 3 (mixed)
RNA 1: B1 RNA 1
RNA 2: B1 RNA 2 with A42U, U43A, A44U, U45C, C47G, G48C, C49G, G50U, U51C
B19: target 1 insG 3' of 8,insG 3' of 4 (mixed)
RNA 1: B1 RNA 1
RNA 2: B1 RNA 2 with A42U, U43A, A44U, U45G
B20: target 1 insA 3' of 19,insC 3' of 18 (mixed)
RNA 1: B1 RNA 1
RNA 2: B4 RNA 2 with U31C, C32A, A33U, U35A, A36C
B21: target 1 insU 3' of 12,insU 3' of 5 (mixed)
RNA 1: B1 RNA 1
RNA 2: B1 RNA 2 with A42U, C49U, G50C
B22: target 1 insG 3' of 7,insA 3' of 7 (mixed)
RNA 1: B1 RNA 1
RNA 2: B1 RNA 2 with A42U, U43A, A44U, U45C, C46G, C47A, G48C, C49G, G50C
B23: target 1 insA 3' of 11,insC 3' of 11 (mixed)
RNA 1: B1 RNA 1
RNA 2: B1 RNA 2 with U43C, A44U, U45A, C46U, G48C, C49G, G50C
B24: target 1 U3G,U11C (mixed)
RNA 1: B1 RNA 1
RNA 2: B6 RNA 2 with U41C, C47G, G48C, A49G, G50C
B25: target 1 G5A,A9C (mixed)
RNA 1: B1 RNA 1
RNA 2: B6 RNA 2 with A43C, C47A, G48C, A49U, G50C
B26: target 1 insC 3' of 5,insA 3' of 4 (mixed)
RNA 1: B1 RNA 1
RNA 2: B1 RNA 2 with A42U, U43A, A44U, U45C, C47G, G48C, G50A
B27: target 1 insA 3' of 11,insG 3' of 10 (mixed)
RNA 1: B1 RNA 1
RNA 2: B1 RNA 2 with A44G, U45A, C46U, G48C, C49G, G50C

Changes are numbered by the printed parent chain. Numbers in names are those of the source.

The target of this series is T1, EsCas13d, nuclease-dead (Eubacterium siraeum, UniProt B0MS50, R295A;H300A;R849A;H854A).
T1 sequence: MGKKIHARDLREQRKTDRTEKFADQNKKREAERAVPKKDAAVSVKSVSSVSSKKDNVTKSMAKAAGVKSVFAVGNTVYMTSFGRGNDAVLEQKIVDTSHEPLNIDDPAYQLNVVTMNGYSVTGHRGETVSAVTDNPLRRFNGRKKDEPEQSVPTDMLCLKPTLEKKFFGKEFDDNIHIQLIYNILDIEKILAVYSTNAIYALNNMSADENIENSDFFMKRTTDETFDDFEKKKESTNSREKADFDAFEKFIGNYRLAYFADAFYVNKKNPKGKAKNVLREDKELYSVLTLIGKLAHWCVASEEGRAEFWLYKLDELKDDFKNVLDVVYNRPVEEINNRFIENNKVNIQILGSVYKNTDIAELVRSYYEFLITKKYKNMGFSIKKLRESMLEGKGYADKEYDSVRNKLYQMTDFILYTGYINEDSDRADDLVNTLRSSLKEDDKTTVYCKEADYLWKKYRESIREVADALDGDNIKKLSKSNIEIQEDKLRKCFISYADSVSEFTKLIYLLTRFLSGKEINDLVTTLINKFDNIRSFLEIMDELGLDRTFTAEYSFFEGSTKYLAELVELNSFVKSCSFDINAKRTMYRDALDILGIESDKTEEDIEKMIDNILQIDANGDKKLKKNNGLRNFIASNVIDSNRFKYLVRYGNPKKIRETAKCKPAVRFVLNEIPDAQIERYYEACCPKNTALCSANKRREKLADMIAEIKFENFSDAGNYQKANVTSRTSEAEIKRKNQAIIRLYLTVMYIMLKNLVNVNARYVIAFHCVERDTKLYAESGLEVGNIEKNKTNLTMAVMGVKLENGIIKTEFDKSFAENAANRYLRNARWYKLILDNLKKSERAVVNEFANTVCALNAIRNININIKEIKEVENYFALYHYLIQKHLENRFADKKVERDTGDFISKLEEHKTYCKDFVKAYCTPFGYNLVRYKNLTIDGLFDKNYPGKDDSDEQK
Nature of the series: crRNA (strand 1, pre-loaded); Mg2+; 40 mM Tris-HCl pH 7.5, 150 mM NaCl, 6 mM MgCl2, 1 mM DTT, 0.1% Tween-20, 0.2 mg/ml BSA; 25 C; 10 min per concentration, then washed. Conditions: tags: His6-TwinStrep-SUMO cleaved; N-terminal SNAP kept (SNAP-Surface 488); label: 3' end held by stalled T7 RNA polymerase.
Broadly, the Kd is the equilibrium constant for the complex coming apart. The low end stands for a tighter complex, the high end for a looser complex. B1 showed a Kd of 9.7 ± 0.5 nM.
B2 came in with a Kd of 27 ± 5 nM.
The same measure for B3: 11.8 ± 0.7 nM.
The same measure for B4: 66 ± 6 nM; for B5: 29 ± 5 nM; for B6: 10.6 ± 0.6 nM.
The result for B7 reads 13 ± 1 nM; that for B8, 54 ± 10 nM; that for B9, 17.1 ± 1.2 nM.
Take B10: binding was characterised by a dissociation constant (Kd) of 10.8 ± 0.4 nM.
The result for B11 reads 50 ± 17 nM; that for B12, 13.4 ± 2 nM.
The result for B13 reads 12.6 ± 0.8 nM.
The result for B14 reads 59 ± 11 nM; that for B15, 13.4 ± 1.2 nM; that for B16, 39.2 ± 2.3 nM.
Molecule B17 gave an equilibrium dissociation constant (Kd) of 90 ± 40 nM.
The result for B18 reads 13.4 ± 1.1 nM.
The result for B19 reads 7.1 ± 0.4 nM; that for B20, 56 ± 5 nM.
For B21, the Kd was determined as 11 ± 0.7 nM.
The result for B22 reads 10.5 ± 0.7 nM.
The same measure for B23: 12.3 ± 0.9 nM.
The same measure for B24: 9.9 ± 0.7 nM.
B25 displayed a dissociation constant Kd of 16.7 ± 1.2 nM.
B26 yielded a Kd of 13.9 ± 1.6 nM.
The same measure for B27: 16.5 ± 0.7 nM.
